Laboratory results from patent publication US8673594B2, “Methods for stimulating nervous system regeneration and repair by regulating arginase I and polyamine synthesis” (Research Foundation of City University of New York, priority 2000, dated 2014).
Entries after “also recorded” stand apart in the source; their conditions may differ.

Columns and labels:
[1] = test system: cerebellar neurons on purified CNS myelin; test: Neurite outgrowth of cerebellar neurons on purified CNS myelin substrate; format: cell-based; settings: for block of myelin-dependent inhibition in the presence of a transcriptional inhibitor: dbcAMP 1 mM or BDNF 200 ng/ml priming, with DRB 5 μM; for block of inhibition by myelin after priming: neurons primed with neurotrophin
Method: Isolated cerebellar neurons at a density of 20,000 neurons per well were plated onto a substrate of purified CNS myelin and cultured overnight before being fixed and immunostained for GAP43. The length of the longest neurite per neuron from 180-200 neurons was measured and results are the average length+/−SEM. Where indicated, dibutyryl cAMP (dbcA) at 1 mM in the presence or absence of the inhibitor of transcription, 5,6-dichloro-1-b-D-ribofuranosylbenzimidazole (DRB) at 5 μM, was added to each culture. (B) Cerebellar neurons (1×10^6) were plated onto poly-L-lysine and cultured overnight with brain-derived neurotrophic factor (BDNF) at 200 ng/ml, (termed priming) in the presence or absence of DRB at 5 μM, before being transferred to the CNS myelin substrate.
The longest neurite from at least 180-200 neurons were measured. Results are shown as the mean neurite length+/−SEM.
(§1) After further incubation, neurons were fixed and immunostained for GAP43. The longest neurite from each neuron for 180-200 neurons were measured. Results are shown as the mean neurite length+/−SEM.
Primed neurons were transferred to either MAG-expressing or control CHO cells (A) or a substrate of CNS myelin (B) for further incubation. Neurons were then fixed and immunostained for GAP43. The longest neurite from each neuron was measured for 180-200 neurons.
Trypsinization was stopped by addition of 5 ml DMEM containing 10% fetal calf serum (FCS) and cells were centrifuged at 800 rpm for 6 min. […] The ganglia were triturated with a fire-polished Pasteur pipette. […] Cells were counted with a Coulter counter.
The neurite outgrowth assay was carried out by adding 5×10^4 neurons to the immobilized myelin substrate or 2×10^4 neurons to the CHO cell monolayers. Briefly, confluent monolayers of control and MAG-expressing CHO cells were established over a 24-hour (h) period in individual chambers of an 8-well tissue culture slide (Lab-Tek). […] Culture medium was SATO containing 2% FCS.
GAP43 antibody was detected by staining with Texas Red and arginase antibody was detected with anti-biotin secondary antibody followed by Texas Red-conjugated streptavidin.
After periods of time as indicated, the co-cultures were fixed for 30 min with 4% paraformaldehyde and permeabilized with ice-cold methanol for 2 min. […] After three more washes, the slides were mounted in Permfluor (Baxter) and viewed with a Zeiss fluorescent microscope. The length of the longest neurite for each GAP43-positive neuron was determined using the Biological Detection System image analysis program (Pittsburgh).

[2] = test system: cerebellar neurons on MAG-expressing CHO cells; test: Neurite outgrowth of cerebellar neurons on MAG-expressing or control CHO cells; format: cell-based; settings: for block of inhibition of neurite growth by MAG after priming: neurons primed overnight with neurotrophin 200 ng/ml, then transferred to CHO monolayers
Method: FIG. 2: Improved Axonal Growth on MAG Induced By Elevating cAMP Levels is Transcription-Dependent. (A) Isolated cerebellar neurons at a density of 20,000 neurons per well were plated onto a monolayer of either MAG-expressing Chinese hamster ovary (CHO) cells (striped bars) or control CHO cells (black bars) and cultured overnight before being fixed and immunostained for GAP43 to visualize the neurites. The length of the longest neurite per neuron, from 180-200 neurons, was measured and results are the average length+/−SEM. Where indicated, dibutyryl cAMP (dbcA) at 1 mM in the presence or absence of the inhibitor of transcription, 5,6-dichloro-1-b-D-ribofuranosylbenzimidazole (DRB) at 5 μM, was added to each culture. (B) Cerebellar neurons (1×10^6) were plated onto poly-L-lysine and cultured overnight with brain-derived neurotrophic factor (BDNF) at 200 ng/ml, (termed priming) in the presence or absence of DRB at 5 μM, before being transferred to the CHO cell monolayers.
FIG. 6: An Ornithine Decarboxylase (ODC) Inhibitor Abrogates the Blocking Effect of dbcAMP on the Inhibition of Axonal Outgrowth by MAG and Myelin. […] The longest neurite from at least 180-200 neurons were measured. Results are shown as the mean neurite length+/−SEM.
as §1
FIG. 8: An Inhibitor Of ODC Blocks The Priming Effects Of GDNF On The Inhibition By MAG. […] After further incubation, neurons were fixed and immunostained for GAP43. The longest neurite from each neuron for 180-200 neurons were measured. Results are shown as the mean neurite length±SEM.
Primed neurons were transferred to either MAG-expressing or control CHO cells (A) or a substrate of CNS myelin (B) for further incubation. Neurons were then fixed and immunostained for GAP43. The longest neurite from each neuron was measured for 180-200 neurons. Results are shown as the percentage of control. […]
Neurons were isolated essentially as described in Doherty at al., Nature, 343, pp. 464-66 (1990); Neuron, 5, pp. 209-19 (1990); and Kleitman at al., Culturing Nerve Cells, pp. 337-78, MIT Press, Cambridge, Mass./London, England (G. Banker and K Goslin, Eds.) (1991). Briefly, for animals up to nine days of age, the cerebellum, from two animals were removed and combined in 5 ml of 0.025% trypsin in PBS, triturated, and incubated for a further 10 minutes (min.) at 37° C. Trypsinization was stopped by addition of 5 ml DMEM containing 10% fetal calf serum (FCS) and cells were centrifuged at 800 rpm for 6 min. […] For older DRG neurons, ganglia were removed from two animals and incubated in 5 ml of Sat medium containing 0.025% trypsin and 0.15% collagenase type I (Worthington) for 30 min. at 37° C. The ganglia were triturated with a fire-polished Pasteur pipette. Trypsinization was stopped by adding 5 ml of DMEM containing 10% FCS, centrifuged at 800 rpm for 6 min, and resuspended in 2 ml of SAT (DeBellard et al., 1996). Cells were counted with a Coulter counter.
Chinese hamster ovary (CHO) cells deficient in the dihydrofolate reductase (dhfr) gene (Urlaub and Chasin, Proc. Natl, Acad, Sci. 77, pp. 4216-20 (1980)) were transfected with a MAG-cDNA expression plasmid with the dhfr gene and the L-MAG cDNA, cells with multiple copies of dbfr were selected by growing in increasing concentrations of methotrexate, and the expression of MAG by individual transfected CHO cell lines characterized as described in Mukhopadhyay et al., Neuron, 13, pp. 757-67 (1994), which is incorporated herein by reference. The MAG-expressing transfected CHO cell line) (“CHO-MAG2”) in that publication was deposited on Jun. 27, 1996 with the American Type Culture Collection (ATCC) (Rockville, Md.) according to the provisions of the Budapest Treaty, and was assigned the ATCC accession number designated: ATCC CRL-12145. […]

CCCC(=O)Nc1ncnc2c1ncn2[C@@H]1O[C@@H]2COP(=O)(O)O[C@H]2[C@H]1OC(=O)CCC [dbcAMP, dibutyryl cAMP]
block of inhibition of neurite growth by myelin ([1]; dbcAMP 1 mM added directly to the culture): blocks the inhibition of neurite growth
block of myelin-dependent inhibition in the presence of a transcriptional inhibitor [1]: completely lost
block of inhibition of neurite growth by MAG ([2]; agent added directly to the co-culture (dbcAMP 1 mM), overnight): blocks inhibition of neuronal growth by MAG; also recorded: blocks the inhibition of neurite growth by MAG

B1: BDNF: Brain-derived neurotrophic factor, Trk-family neurotrophin (protein, UniProt P23560 19-247, looked up)
Neurotrophic factor BDNF …: APMKEANIRGQGGLAYPGVRTHGTLESVNGPKAGSRGLTSLADTFEHVIEELLDEDQKVRPNEENNKDADLYTSRVMLSSQVPLEPPLLFLLEEYKNYLDAANMSMRVRRHSDPARRGELSVCDSISEWVTAADKKTAVDMSGGTVTVLEKVPVSKGQLKQYFYETKCNPMGYTKEGCRGIDKRHWNSQCRTTQSYVRALTMDSKKRIGWRFIRIDTSCVCTLTIKRGR
block of myelin-dependent inhibition in the presence of a transcriptional inhibitor [1]: completely lost
block of inhibition by myelin after priming [1]: overcomes inhibition of regeneration by MAG and myelin
block of inhibition of neurite growth by MAG after priming [2]: blocks inhibition of neuronal growth by MAG; also recorded: blocked the inhibition by MAG

B2: GDNF: glial cell line-derived neurotrophic factor (protein, UniProt P39905 78-211, looked up)
Glial cell line-derived …: SPDKQMAVLPRRERNRQAAAANPENSRGKGRRGQRGKNRGCVLTAIHLNVTDLGLGYETKEELIFRYCSGSCDAAETTYDKILKNLSRNRRLVSDKVGQACCRPIAFDDDLSFLDDNLVYHILRKHSAKRCGCI
block of inhibition by myelin after priming [1]: overcomes inhibition of regeneration by MAG and myelin
block of inhibition of neurite growth by MAG after priming [2]: overcomes inhibition of regeneration by MAG and myelin
